Biological target: FLAG-Pol λ-WT (human, UniProt Q9UGP5 1-575)
Experiment: cell-based or functional assay

Pol λ-dependent gap filling synthesis on a 5nt-gapped dsDNA (33-mer), stimulation by added protein over a concentration series: ≤ 10 fold
B1: FLAG-XRCC4 (natural protein, human, UniProt Q13426 1-336, looked up)
chain: MERKISRIHLVSEPSITHFLQVSWEKTLESGFVITLTDGHSAWTGTVSESEISQEADDMAMEKGKYVGELRKALLSGAGPADVYTFNFSKESCYFFFEKNLKDVSFRLGSFNLEKVENPAEVIRELICYCLDTIAENQAKNEHLQKENERLLRDWNDVQGRFEKCVSAKEALETDLYKRFILVLNEKKTKIRSLHNKLLNAAQEREKDIKQEGETAICSEMTADRDPVYDESTDEESENQTDLSGLASAAVSKDDSIISSLDVTDIAPSRKRRQRMQRNLGTEPKMAPQENQLQEKENSRPDSSLPETSKKEHISAENMSLETLRNSSPEDLFDEI
